Laboratory results published in patent publication US20150111829A1 (PHASEBIO PHARMACEUTICALS, published 2015).

T1: human Vasoactive Intestinal Peptide Receptor 1 (VPAC1) (human, UniProt P32241 31-457)
T1 sequence (looked up): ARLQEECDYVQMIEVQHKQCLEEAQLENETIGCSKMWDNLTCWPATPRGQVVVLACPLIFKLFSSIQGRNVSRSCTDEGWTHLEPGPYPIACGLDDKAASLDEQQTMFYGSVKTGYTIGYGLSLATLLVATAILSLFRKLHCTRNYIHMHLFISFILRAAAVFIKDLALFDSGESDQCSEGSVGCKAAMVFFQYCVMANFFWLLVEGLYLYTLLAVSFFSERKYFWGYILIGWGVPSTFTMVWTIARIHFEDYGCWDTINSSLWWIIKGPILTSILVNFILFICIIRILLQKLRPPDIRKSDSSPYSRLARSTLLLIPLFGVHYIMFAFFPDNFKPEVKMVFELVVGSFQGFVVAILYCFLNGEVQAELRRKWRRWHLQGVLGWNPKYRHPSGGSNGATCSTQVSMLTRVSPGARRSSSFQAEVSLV

T2: human Vasoactive Intestinal Peptide Receptor 1 (VPAC1) (human) (UniProt P32241)
T2 sequence (looked up): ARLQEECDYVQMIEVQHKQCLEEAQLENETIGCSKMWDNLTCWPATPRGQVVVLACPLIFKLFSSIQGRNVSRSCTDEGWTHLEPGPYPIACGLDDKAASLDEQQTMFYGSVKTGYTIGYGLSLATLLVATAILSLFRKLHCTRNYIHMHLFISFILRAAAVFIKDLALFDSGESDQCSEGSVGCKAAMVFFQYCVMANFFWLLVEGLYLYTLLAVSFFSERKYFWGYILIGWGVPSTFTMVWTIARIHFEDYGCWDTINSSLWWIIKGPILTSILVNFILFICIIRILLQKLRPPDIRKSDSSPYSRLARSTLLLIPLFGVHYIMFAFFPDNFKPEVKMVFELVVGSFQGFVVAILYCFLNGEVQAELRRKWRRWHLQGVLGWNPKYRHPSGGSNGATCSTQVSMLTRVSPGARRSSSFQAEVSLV

T3: human Vasoactive Intestinal Peptide Receptor 2 (VPAC2) (human) (UniProt P41587)
T3 sequence (looked up): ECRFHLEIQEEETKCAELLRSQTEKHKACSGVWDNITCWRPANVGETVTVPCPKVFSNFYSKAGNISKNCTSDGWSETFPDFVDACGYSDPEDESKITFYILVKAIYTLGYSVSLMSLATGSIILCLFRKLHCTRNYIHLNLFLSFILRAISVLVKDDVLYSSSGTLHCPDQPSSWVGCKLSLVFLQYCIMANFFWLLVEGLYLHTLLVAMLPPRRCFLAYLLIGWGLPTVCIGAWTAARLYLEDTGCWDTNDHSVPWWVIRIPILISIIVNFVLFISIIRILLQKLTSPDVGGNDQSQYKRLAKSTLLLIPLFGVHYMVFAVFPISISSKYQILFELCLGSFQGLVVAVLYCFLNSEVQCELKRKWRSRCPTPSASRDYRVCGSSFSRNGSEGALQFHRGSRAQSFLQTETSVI


Columns and labels:
Assay in all cases: cell-based or functional assay
[1] = molecular target: T1, human Vasoactive Intestinal Peptide …
[2] = molecular target: T2, human Vasoactive Intestinal Peptide Receptor 1 (VPAC1) (human)
[3] = molecular target: T3, human Vasoactive Intestinal Peptide Receptor 2 (VPAC2) (human)

Row | cAMP assay in CHO cells expressing VPAC1, fold less active than native VIP [1] | cAMP assay in CHO cells expressing VPAC1, fold less active than native VIP (fold less active than native VIP) [2] | cAMP assay in CHO cells expressing VPAC2, fold less active than native VIP (fold less active than native VIP) [3] | Binder
1 | ~11 fold less active than native VIP | – | – | M-VIP-ELP1-120 fusion protein PB1046 (other) MHSDAVFTDNYTRLRKQMAVKKYLNSILNVPGVGVPGVGVPGGGVPGAGVPGVGVPGVGVPGVGVPGGGVPGAGVPGGGVPGVGVPGVGVPGGGVPGAGVPGVGVPGVGVPGVGVPGGGVPGAGVPGGGVPGVGVPGVGVPGGGVPGAGVPGVGVPGVGVPGVGVPGGGVPGAGVPGGGVPGVGVPGVGVPGGGVPGAGVPGVGVPGVGVPGVGVPGGGVPGAGVPGGGVPGVGVPGVGVPGGGVPGAGVPGVGVPGVGVPGVGVPGGGVPGAGVPGGGVPGVGVPGVGVPGGGVPGAGVPGVGVPGVGVPGVGVPGGGVPGAGVPGGGVPGVGVPGVGVPGGGVPGAGVPGVGVPGVGVPGVGVPGGGVPGAGVPGGGVPGVGVPGVGVPGGGVPGAGVPGVGVPGVGVPGVGVPGGGVPGAGVPGGGVPGVGVPGVGVPGGGVPGAGVPGVGVPGVGVPGVGVPGGGVPGAGVPGGGVPGVGVPGVGVPGGGVPGAGVPGVGVPGVGVPGVGVPGGGVPGAGVPGGGVPGVGVPGVGVPGGGVPGAGVPGVGVPGVGVPGVGVPGGGVPGAGVPGGGVPGVGVPGVGVPGGGVPGAGVPGVGVPGVGVPGVGVPGGGVPGAGVPGGGVPGWP
2 | – | 1.4 | 1.5 | HSDAVFTDNYTRLRKQMAVKKYLNSILN (peptide, part only; not given: ELP1-120 polymer, part only) [VIP-ELP1-120 fusion peptide PB1120]
